Measured values reported in patent US20220127354A1 (Amgen, published 2022).

How the values were obtained:
Assay in all cases: flow cytometry, transfected 293T cells
[1] = target: T1, muCDH19(44-362)::huCDH19(365-772) with Flag tag (construct G, Hu EC4-5) (human/mouse chimera)
T1 construct: leader left out; the entry starts at residue 44; also called C137917
T1 chain: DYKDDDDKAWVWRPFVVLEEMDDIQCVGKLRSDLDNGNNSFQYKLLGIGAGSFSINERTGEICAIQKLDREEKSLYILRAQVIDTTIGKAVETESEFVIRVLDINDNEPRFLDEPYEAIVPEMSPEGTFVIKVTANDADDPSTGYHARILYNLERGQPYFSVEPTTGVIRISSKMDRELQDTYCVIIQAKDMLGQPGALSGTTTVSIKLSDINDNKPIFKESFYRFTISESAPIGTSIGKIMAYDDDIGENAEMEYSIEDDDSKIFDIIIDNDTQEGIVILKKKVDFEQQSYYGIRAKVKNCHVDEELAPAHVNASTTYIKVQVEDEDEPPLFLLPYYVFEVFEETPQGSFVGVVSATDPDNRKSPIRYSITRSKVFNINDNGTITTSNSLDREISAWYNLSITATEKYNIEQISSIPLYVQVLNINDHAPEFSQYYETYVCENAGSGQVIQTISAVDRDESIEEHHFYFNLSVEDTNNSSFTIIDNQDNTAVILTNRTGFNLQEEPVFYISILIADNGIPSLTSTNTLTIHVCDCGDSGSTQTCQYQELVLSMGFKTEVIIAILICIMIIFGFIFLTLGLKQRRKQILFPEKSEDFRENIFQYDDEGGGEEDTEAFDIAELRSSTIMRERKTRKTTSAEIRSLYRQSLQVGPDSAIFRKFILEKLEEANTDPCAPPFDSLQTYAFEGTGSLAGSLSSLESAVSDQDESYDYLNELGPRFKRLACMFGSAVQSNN
Excerpt: (§1) The experiment included assaying the anti-CDH19 antibodies against mouse Cadherin19 to determine suitability for binning on these human/mouse chimeras.

[2] = target: T2, muCDH19(44-139)::huCDH19(142-249)::muCDH19(248-770) with Flag tag (construct D, Hu EC2) (human/mouse chimera)
T2 construct: leader left out; the entry starts at residue 44; also called C137913
T2 chain: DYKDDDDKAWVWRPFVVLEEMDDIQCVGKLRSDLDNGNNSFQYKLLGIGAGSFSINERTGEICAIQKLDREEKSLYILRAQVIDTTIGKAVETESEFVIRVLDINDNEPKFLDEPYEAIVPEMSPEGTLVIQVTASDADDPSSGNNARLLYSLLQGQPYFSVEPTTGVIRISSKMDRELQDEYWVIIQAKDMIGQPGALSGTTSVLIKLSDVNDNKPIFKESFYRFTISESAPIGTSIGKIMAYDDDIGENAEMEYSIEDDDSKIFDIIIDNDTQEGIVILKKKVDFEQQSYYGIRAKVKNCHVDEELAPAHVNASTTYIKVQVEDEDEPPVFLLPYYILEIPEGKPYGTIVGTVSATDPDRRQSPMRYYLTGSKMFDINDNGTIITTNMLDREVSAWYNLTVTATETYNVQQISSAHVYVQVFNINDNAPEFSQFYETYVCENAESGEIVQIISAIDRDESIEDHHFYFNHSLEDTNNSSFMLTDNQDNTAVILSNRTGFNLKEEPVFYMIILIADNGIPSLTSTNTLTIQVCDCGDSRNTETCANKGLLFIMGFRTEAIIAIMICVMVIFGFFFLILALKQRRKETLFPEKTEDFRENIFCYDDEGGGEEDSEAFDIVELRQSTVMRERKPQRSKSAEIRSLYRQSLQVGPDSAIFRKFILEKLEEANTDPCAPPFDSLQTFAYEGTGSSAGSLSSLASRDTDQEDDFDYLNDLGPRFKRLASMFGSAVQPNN
Excerpt: as §1

[3] = target: T3, muCDH19(44-461)::huCDH19(464-772) with Flag tag (construct H, Hu EC5) (human/mouse chimera)
T3 construct: leader left out; the entry starts at residue 44; also called C137915
T3 chain: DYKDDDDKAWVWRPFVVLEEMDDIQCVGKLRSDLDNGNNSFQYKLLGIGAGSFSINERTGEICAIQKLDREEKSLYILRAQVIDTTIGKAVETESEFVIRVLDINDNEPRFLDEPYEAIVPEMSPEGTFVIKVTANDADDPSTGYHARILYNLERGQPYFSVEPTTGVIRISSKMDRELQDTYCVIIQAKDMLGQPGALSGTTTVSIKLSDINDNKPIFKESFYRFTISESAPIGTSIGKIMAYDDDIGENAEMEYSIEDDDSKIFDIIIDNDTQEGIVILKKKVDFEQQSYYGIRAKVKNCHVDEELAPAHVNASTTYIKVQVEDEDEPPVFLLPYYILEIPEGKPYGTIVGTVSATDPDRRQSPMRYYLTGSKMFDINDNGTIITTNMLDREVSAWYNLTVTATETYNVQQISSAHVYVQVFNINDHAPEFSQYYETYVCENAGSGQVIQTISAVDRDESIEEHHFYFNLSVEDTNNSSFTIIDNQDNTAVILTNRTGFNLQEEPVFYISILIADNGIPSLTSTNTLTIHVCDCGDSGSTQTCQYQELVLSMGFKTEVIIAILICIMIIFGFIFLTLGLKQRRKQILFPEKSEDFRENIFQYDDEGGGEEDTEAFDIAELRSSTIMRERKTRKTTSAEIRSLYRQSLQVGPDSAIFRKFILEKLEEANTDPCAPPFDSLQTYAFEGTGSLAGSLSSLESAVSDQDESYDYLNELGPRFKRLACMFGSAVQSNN
Excerpt: as §1

binding result [1]: binds | binding result [2]: binds | binding result [3]: binds
B1: anti-CDH19 antibody 2G6 (Ab ID 13588) (antibody, human IgG1, lambda, V domains shown)
VH: QVQLVESGGGVVQPGRSLRLSCAASGFTFSSYGMHWVRQAPGKGLEWVAFIWYDGSNKYYADSVKDRFTISRDNSKNTLYLQMKSLRAEDTAVYYCARRAGIIGTIGYYYGMDVWGQGTTVTVSS
VL: SYELTQPPSVSVSPGQTASITCSGDRLGEKYTCWYQQRPGQSPLLVIYQDTKRPSGIPERFSGSNSGNTATLTISGTQAMDEADYYCQAWDSSTVVFGGGTKLTVLG
notes: Bin 4
